Measurements reported in patent publication US20140274782A1, “AFFINITY REAGENTS AND METHODS FOR DETECTION, PURIFICATION, AND PROTEOMIC ANALYSIS OF METHYLATED PROTEINS” (The Board of Trustees of the Leland Stanford Junior …, priority 2013, published 2014).

T1: G9a and GLP (Homo sapiens, UniProt Q96KQ7+Q9H9B1)
T1 sequence (Q96KQ7 2-1210 limits assumed): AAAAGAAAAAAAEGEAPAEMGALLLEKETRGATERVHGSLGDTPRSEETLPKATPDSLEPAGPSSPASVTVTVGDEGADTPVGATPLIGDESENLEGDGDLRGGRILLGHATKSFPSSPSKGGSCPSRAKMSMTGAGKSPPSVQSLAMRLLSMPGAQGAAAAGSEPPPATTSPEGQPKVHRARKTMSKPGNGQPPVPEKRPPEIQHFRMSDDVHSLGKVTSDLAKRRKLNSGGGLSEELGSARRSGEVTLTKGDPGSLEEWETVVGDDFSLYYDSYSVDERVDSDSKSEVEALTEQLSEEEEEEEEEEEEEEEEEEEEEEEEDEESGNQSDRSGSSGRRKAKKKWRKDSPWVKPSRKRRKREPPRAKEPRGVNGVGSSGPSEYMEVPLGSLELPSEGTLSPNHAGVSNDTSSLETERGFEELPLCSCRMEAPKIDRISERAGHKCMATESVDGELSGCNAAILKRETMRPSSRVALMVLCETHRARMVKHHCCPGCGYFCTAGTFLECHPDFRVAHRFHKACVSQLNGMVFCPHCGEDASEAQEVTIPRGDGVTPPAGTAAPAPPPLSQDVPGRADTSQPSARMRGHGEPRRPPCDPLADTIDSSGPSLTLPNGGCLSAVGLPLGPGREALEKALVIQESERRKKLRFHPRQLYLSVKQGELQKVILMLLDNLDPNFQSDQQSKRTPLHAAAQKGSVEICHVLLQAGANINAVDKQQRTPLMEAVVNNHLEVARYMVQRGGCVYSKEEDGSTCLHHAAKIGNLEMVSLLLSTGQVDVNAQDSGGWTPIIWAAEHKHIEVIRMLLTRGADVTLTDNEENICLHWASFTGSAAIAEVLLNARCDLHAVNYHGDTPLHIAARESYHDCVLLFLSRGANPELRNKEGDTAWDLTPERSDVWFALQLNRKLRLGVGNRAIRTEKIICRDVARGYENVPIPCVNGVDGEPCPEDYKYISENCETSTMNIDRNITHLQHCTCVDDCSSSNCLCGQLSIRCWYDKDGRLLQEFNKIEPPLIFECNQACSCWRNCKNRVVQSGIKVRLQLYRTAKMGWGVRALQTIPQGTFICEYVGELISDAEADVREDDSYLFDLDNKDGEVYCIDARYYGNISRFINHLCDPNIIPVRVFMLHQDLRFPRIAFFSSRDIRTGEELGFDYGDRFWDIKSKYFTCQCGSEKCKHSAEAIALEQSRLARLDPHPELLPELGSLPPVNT
T1 sequence (Q9H9B1 2-1298 limits assumed): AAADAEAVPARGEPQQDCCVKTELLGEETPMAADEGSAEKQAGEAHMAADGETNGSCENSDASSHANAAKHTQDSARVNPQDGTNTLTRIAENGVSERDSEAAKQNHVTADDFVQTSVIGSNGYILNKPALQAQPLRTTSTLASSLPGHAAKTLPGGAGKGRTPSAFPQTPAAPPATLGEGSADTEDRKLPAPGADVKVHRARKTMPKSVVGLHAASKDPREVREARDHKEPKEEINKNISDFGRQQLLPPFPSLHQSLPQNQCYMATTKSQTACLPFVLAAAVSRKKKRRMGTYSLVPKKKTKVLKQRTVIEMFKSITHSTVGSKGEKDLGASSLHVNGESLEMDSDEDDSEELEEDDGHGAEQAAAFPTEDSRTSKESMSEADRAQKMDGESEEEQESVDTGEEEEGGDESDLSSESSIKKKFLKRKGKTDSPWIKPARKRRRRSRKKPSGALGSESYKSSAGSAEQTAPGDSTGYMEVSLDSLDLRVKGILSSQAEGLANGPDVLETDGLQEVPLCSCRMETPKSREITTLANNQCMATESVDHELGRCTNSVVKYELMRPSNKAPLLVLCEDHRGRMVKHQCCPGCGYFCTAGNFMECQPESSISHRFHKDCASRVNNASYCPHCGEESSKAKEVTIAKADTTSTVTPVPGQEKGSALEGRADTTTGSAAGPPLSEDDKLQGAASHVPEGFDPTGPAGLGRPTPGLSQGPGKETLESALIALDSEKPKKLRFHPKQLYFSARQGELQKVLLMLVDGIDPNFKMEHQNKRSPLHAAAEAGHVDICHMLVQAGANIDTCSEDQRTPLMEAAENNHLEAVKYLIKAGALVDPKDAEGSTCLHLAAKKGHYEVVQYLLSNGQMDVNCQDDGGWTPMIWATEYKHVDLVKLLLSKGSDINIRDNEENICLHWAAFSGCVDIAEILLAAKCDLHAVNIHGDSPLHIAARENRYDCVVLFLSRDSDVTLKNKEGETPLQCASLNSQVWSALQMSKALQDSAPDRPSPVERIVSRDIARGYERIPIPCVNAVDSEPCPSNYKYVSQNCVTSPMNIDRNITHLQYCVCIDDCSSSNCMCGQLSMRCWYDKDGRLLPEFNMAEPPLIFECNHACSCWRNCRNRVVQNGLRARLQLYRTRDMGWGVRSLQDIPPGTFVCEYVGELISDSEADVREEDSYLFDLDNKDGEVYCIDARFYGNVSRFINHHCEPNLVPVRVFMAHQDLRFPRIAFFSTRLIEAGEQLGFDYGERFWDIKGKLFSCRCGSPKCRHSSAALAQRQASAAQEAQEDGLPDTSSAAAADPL


Tests used:
3×MBT domain of L3MBTL1 [1] = experiment: SILAC proteomic pull-down 3×MBT vs 3×MBTD355N from 293T nuclear extract, LC-MS/MS; format: binding, human; conditions: SILAC ratio, 293T nuclear extract pull-down; * = protein identified in only one labeling experiment
Procedure: Protein pull-downs were performed as described above using 600 μg of nuclear extract prepared with isotopic labels as indicated. After eluting with glutathione, 3×MBT domain was removed by dialysis into high salt and rebinding to GSH-sepharose. Bound proteins were separated by SDS-PAGE and analyzed by in-gel tryptic digest followed by LC-MS/MS. Peptides were identified using MaxQuant version 1.2.2.5 (Cox and Mann (2008) Nat. Biotechnol. 26, 1367-1372) and candidate methylated peptides were verified by manual inspection.
For stable isotope labeling by amino acids in cell culture (SILAC) experiments HEK 293T cells were grown for at least six doublings in DMEM for SILAC supplemented with 10% dialyzed fetal bovine serum (FBS), 230 mg/L L-proline and either 100 mg/L each of L-lysine and L-arginine (“light” medium), D4-L-lysine and ^13C6-L-arginine (“medium” media), or ^13C6^15N2-L-lysine and ^13C6^15N4-L-arginine (Thermo Scientific). Heavy methyl labeling used DMEM without L-Methionine or L-Cysteine supplemented with D3^13C-L-Methionine (Sigma), L-Cysteine (Sigma) and 10% dialyzed FBS.
600 μg of nuclear extract was incubated overnight rotating at 4° C. with 20 μl packed 3×MBT or 3×MBTD355N beads in a total volume of 250 μL with binding buffer. Supernatant was removed and saved for use as a loading control. Beads were washed 4×5 minutes with 0.5 mL binding buffer. Protein was eluted by incubating in 20 μL elution buffer (10 mg/mL glutathione in 50 mM Tris pH 8.0) rotating at 4° C. for four hours. Elutions from 3×MBT and 3×MBTD355N were combined and dialyzed overnight at 4° C. against 10,000× volume of dissociation buffer (50 mM Tris pH 7.5, 750 mM NaCl) in a 0.1 mL Slide-A-Lyzer MINI Dialysis Device with 3.5K molecular weight cutoff (Thermo Scientific). 80 μL of GSH-Sepharose was prepared by washing briefly three times with 0.5 mL binding buffer. Dialyzed proteins were added to the GSH-Sepharose and incubated 4 hours rotating at 4° C. to deplete the GST-fusion domains. Supernatant was transferred to a fresh 1.5 mL tube. Proteins were separated by SDS-PAGE on a 10% polyacrylamide gel and stained using SilverQuest Silver Staining Kit (Life Technologies). Lanes were excised, residual 3×MBT band was removed, and gel was diced into 0.5 mm cubes. Gel pieces were destained and processed by in-gel digestion (Carlson et al. (2011) Science Signaling 4) with sequencing grade trypsin (Promega) and the peptide sample was dried completely in a vacuum centrifuge. To prepare a loading control, 2 μL each of light and heavy nuclear extract were combined, 6 μL of 8M urea was added, proteins were denatured by adding 2 μL of 100 mM dithiothreitol in digest buffer (50 mM ammonium bicarbonate) and heating to 60° C. for 1 hour, cysteine was alkylated by adding 2.2 μL 100 mg/mL iodoacetamide in digest buffer and incubating 1 hour at room temperature in darkness, and proteins were digested by adding 80 μL trypsin (Promega) at 12.5 ng/μL in digest buffer and incubating overnight at room temperature in darkness. Digestion was stopped by adding 10 μL of 10% formic acid.
Each experiment consisted of two sets of pull-downs: “forward” labeling with 3×MBT incubated with light nuclear extract and 3×MBTD355N with medium extract, and a second “reverse” labeling experiment with the label conditions swapped. Proteins were included in the results if they were quantified in both labeling directions. To determine reproducibility the entire experiment including the label swap was duplicated using independent protein preparations and a mass spectrometer at another institution.
For 3×MBT pull-down experiment #1 the gel lane was processed and peptides were loaded off-line onto a first dimension trap column (Waters Xbridge, C18, 10 μm particle size, 100 Å pore size, 5 cm packing length, 150 μm column i.d.). […]

G9a and GLP = target: T1, G9a and GLP; experiment: Triple SILAC pull-down after UNC0638 treatment of 293T cells, DMSO/UNC0638 ratio of protein captured by 3×MBT; format: cell-based; parameters: cells were treated for 24 hours with UNC0638 at 2.5 μM or DMSO vehicle control; endogenous in cells; host or cells: HEK 293T;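 note: mass spectrometry (Q-Exactive) SILAC quantitation, DMSO/UNC0638 ratio computed after subtracting 3×MBTD355N mutant pull-down background, only proteins with at least twofold 3×MBT over mutant signal considered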
3×MBT domain of L3MBTL1 [2] = experiment: Triple SILAC pull-down, 3xMBT/3xMBTD355N ratio (cytoplasmic, nuclear and chromatin fractions of 293T cells); format: binding, human; conditions: SILAC ratio, pull-down 3xMBT vs 3xMBTD355N;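 note: proteins quantified with MaxQuant, requiring at least two unique peptides and quantification in both label directions, normalized to the mean of proteins from a digested loading control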

Molecule	Protein Ratio 3xMBT/D355N (3×MBT domain of L3MBTL1 [1])	Relative to UNC0638 UNC Heavy (G9a and GLP; SILAC ratio DMSO/UNC0638 of protein pulled down with 3xMBT, UNC0638 in heavy SILAC media) [log base 2]	Relative to UNC0638 UNC Light (G9a and GLP; SILAC ratio DMSO/UNC0638 of protein pulled down with 3xMBT, UNC0638 in light SILAC media) [log base 2]	Relative to UNC0638 Average (G9a and GLP; average of UNC Light and UNC Heavy experiments) [log base 2]	3xMBT/D355N UNC Heavy (3×MBT domain of L3MBTL1 [2]; experiment with UNC0638 in heavy SILAC media) [log base 2]	3xMBT/D355N UNC Light (3×MBT domain of L3MBTL1 [2]; experiment with UNC0638 in light SILAC media) [log base 2]
eEF1A2: protein with methylated lysine identified in 3xMBT pull-down (protein, UniProt Q05639 2-463, looked up) Elongation factor 1-alpha 2: GKEKTHINIVVIGHVDSGKSTTTGHLIYKCGGIDKRTIEKFEKEAAEMGKGSFKYAWVLDKLKAERERGITIDISLWKFETTKYYITIIDAPGHRDFIKNMITGTSQADCAVLIVAAGVGEFEAGISKNGQTREHALLAYTLGVKQLIVGVNKMDSTEPAYSEKRYDEIVKEVSAYIKKIGYNPATVPFVPISGWHGDNMLEPSPNMPWFKGWKVERKEGNASGVSLLEALDTILPPTRPTDKPLRLPLQDVYKIGGIGTVPVGRVETGILRPGMVVTFAPVNITTEVKSVEMHHEALSEALPGDNVGFNVKNVSVKDIRRGNVCGDSKSDPPQEAAQFTSQVIILNHPGQISAGYSPVIDCHTAHIACKFAELKEKIDRRSGKKLEDNPKSLKSGDAAIVEMVPGKPMCVESFSQYPPLGRFAVRDMRQTVAVGVIKNVEKKSGGAGKVTKSAQKAQKAGK	1.5	–	–	–	–	–
FAM50A: protein with methylated lysine identified in 3xMBT pull-down (protein, UniProt Q14320 2-339, looked up, methylated lysine, protein with methylated lysine identified in 3xMBT pull-down) Protein FAM50A: AQYKGAASEAGRAMHLMKKREKQREQMEQMKQRIAEENIMKSNIDKKFSAHYDAVEAELKSSTVGLVTLNDMKAKQEALVKEREKQLAKKEQSKELQMKLEKLREKERKKEAKRKISSLSFTLEEEEEGGEEEEEAAMYEEEMEREEITTKKRKLGKNPDVDTSFLPDRDREEEENRLREELRQEWEAKQEKIKSEEIEITFSYWDGSGHRRTVKMRKGNTMQQFLQKALEILRKDFSELRSAGVEQLMYIKEDLIIPHHHSFYDFIVTKARGKSGPLFNFDVHDDVRLLSDATVEKDESHAGKVVLRSWYEKNKHIFPASRWEPYDPEKKWDKYTIR	3.7*	–	–	–	–	–
SRSF11 (protein, UniProt Q05519 2-484, looked up) Serine/arginine-rich splicing …: SNTTVVPSTAGPGPSGGPGGGGGGGGGGGGTEVIQVTNVSPSASSEQMRTLFGFLGKIDELRLFPPDDSPLPVSSRVCFVKFHDPDSAVVAQHLTNTVFVDRALIVVPYAEGVIPDEAKALSLLAPANAVAGLLPGGGLLPTPNPLTQIGAVPLAALGAPTLDPALAALGLPGANLNSQSLAADQLLKLMSTVDPKLNHVAAGLVSPSLKSDTSSKEIEEAMKRVREAQSLISAAIEPDKKEEKRRHSRSRSRSRRRRTPSSSRHRRSRSRSRRRSHSKSRSRRRSKSPRRRRSHSRERGRRSRSTSKTRDKKKEDKEKKRSKTPPKSYSTARRSRSASRERRRRRSRSGTRSPKKPRSPKRKLSRSPSPRRHKKEKKKDKDKERSRDERERSTSKKKKSKDKEKDRERKSESDKDVKQVTRDYDEEEQGYDSEKEKKEEKKPIETGSPKTKECSVEKGTGDSLRESKVNGDDHHEEDMDMSD	–	0.15	0.34	0.24	2.45	2.22
